Assay results from patent publication US20100216191A1, “Method for Manufacturing a Modified Peptide” (PROCOMCURE BIOTECH GMBH, priority 2007, published 2010).

B1: FLNA: human protein interacting with FnbB, NCBI Protein GI 15779184 (protein)
chain: MPSGKVAQPTITDNKDGTVTVRYAPSEAGLHEMDIRYDNMHIPGSPLQFYVDYVNCGHVTAYGPGLTHGVVNKPATFTVNTKDAGEGGLSLAIEGPSKAEISCTDNQDGTCSVSYLPVLPGDYSILVKYNEQHVPGSPFTARVTGDDSMRMSHLKVGSAADIPINISETDLSLLTATVVPPSGREEPCLLKRLRNGHVGISFVPKETGEHLVHVKKNGQHVASSPIPVVISQSEIGDASRVRVSGQGLHEGHTFEPAEFIIDTRDAGYGGLSLSIEGPSKVDINTEDLEDGTCRVTYCPTEPGNYIINIKFADQHVPGSPFSVKVTGEGRVKESITRRRRAPSVANVGSHCDLSLKIPEISIQDMTAQVTSPSGKTHEAEIVEGENHTYCIRFVPAEMGTHTVSVKYKGQHVPGSPFQFTVGPLGEGGAHKVRAGGPGLERAEAGVPAEFSIWTREAGAGGLAIAVEGPSKAEISFEDRKDGSCGVAYVVQEPGDYEVSVKFNEEHIPDSPFVVPVASPSGDARRLTVSSLQESGLKVNQPASFAVSLNGAKGAIDAKVHSPSGALEECYVTEIDQDKYAVRFIPRENGVYLIDVKFNGTHIPGSPFKIRVGEPGHGGDPGLVSAYGAGLEGGVTGNPAEFVVNTSNAGAGALSVTIDGPSKVKMDCQECPEGYRVTYTPMAPGSYLISIKYGGPYHIGGSPFKAKVTGPRLVSNHSLHETSSVFVDSLTKATCAPQHGAPGPGPADASKVVAKGLGLSKAYVGQKSSFTVDCSKAGNNMLLVGVHGPRTPCEEILVKHVGSRLYSVSYLLKDKGEYTLVVKWGDEHIPGSPYRVVVP
B2: HSPC 118: human protein interacting with FnbB, NCBI Protein GI 6841458 (protein)
chain: MVGGGGVGGGLLENANPLIYQRSGERPVTAGEEDEQVPDSIDAREIFDLIRSINDPEHPLTLEELNVVEQVRVQVSDPESTVAVAFTPTIPHCSMATLIGLSIKVKLLRSLPQRFKMDVHITPGTHASEHAVNKQLADKERVAAALENTHLLEVVNQCLSARS

Tested on: GST-tagged FnbB
Experiment: Pull-down with GST-tagged FnbB, proteins from rabbit reticulocyte translation system
Format: binding, S. aureus
Details: cell-free protein translation system; GST alone as negative control
Description: Recombinant proteins were produced from the isolated plasmids from the PPI-partners in a rabbit reticulocyte-based translation system and additionally in E. coli cells. The produced recombinant proteins were used for pull-down and immunoprecipitation experiments.

Molecule	Co-purified with GST-tagged FnbB
B1	could be co-purified
B2	could be co-purified
